1 substance from US20180057553A1, “CONJUGATE AND USE THEREOF” (The University of Tokyo, priority 2015, published 2018) can be followed below.

The test concerns the target recombinant human TNF-alpha (Life Technologies) (human) (UniProt P01375). Put plainly: SPR (Biacore), Etanercept amine-coupled to chip, TNF-alpha as analyte. (In general: Surface plasmon resonance follows binding to a sensor surface in real time, without labels.)

Chain of recombinant human TNF-alpha (Life Technologies) (human) (P01375 77-233 limits assumed): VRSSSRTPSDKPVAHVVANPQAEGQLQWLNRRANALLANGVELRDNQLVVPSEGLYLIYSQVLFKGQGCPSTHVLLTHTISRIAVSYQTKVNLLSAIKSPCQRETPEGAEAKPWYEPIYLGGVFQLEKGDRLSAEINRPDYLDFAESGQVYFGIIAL

For orientation: Kd means the equilibrium constant for the complex coming apart. Take “Etanercept (soluble TNF receptor, product name Enbrel, Takeda Pharmaceutical Company) (Fc fusion)”: the equilibrium dissociation constant (Kd) was found to be 0.313 nM.
